Experimental data: US20190078065A1, “MODIFIED DNA POLYMERASES” (SIGMA-ALDRICH CO. LLC, priority 2017, published 2019)

Tests used:
Format in all cases: biochemical
[1] = tested on: 3′-O-carbamate or ester blocked nucleotides; test: incorporation of 3′-O-blocked nucleotides, mutant vs. wild type polymerase, quantified by densitometry; conditions: for rates of incorporation of 3′-O-carbamate or ester blocked nucleotides as compared to wild type (WT) Hs PolM: densitometry
From the text: The incorporation of 3′-O-carbamate or ester blocked nucleotides by the PolM-loop1 chimera, Hs PolM-Lp1, or the truncated PolM-loop1 chimera, Hs tPolM-Lp1 was compared to that of wild type Hs PolM. The amount of incorporation was quantified by densitometry.

[2] = tested on: 3′-O-blocked adenosine 5′-triphosphates; test: incorporation of 3′-O-blocked adenosine, comparison with Bt TdT
[3] = tested on: 3′-O-carbamate or ester blocked nucleotides; test: template-free DNA synthesis reaction: incorporation of 3′-O-blocked nucleotides; conditions: template-independent, dNTP1, 2, 3, 5, 6 of Table 2; FIG. 5
From the text: The ability of the PolM-loop1 chimera, Hs PolM-Lp1, to incorporate 3′-O-blocked nucleotides was examined in a template-free DNA synthesis reaction.

B1: Hs tPolM-Lp1: Homo sapiens PolM, Loop 1 domain swap and N-terminal truncation (Δ 1-108) (protein)
chain: MLGAGQPVPVECRHRLEVAGPRKGPLSPAWMPAYACQRPTPLTHHNTGLSEALEILAEAAGFEGSEGRLLTFCRAASVLKALPSPVTTLSQLQGLPHFGEHSSRVVQELLEHGVCEEVERVRRSERYQTMKLFTQIFGVGVKTADRWYREGLRTLDDLREQPQKLTQQQKAGLQHHQDLSTPVLRSDVDALQQVVEEAVGQALPGATVTLTGGFRRGKLQGHDVDFLITHPKEGQEAGLLPRVMCRLQDQGLILYHQHQESTFEKLRLPSRKVDALDHFERSFCIFRLPQPPGAAVGGSTRPCPSWKAVRVDLVVAPVSQFPFALLGWTGSKLFQRELRRFSRKEKGLWLNSHGLFDPEQKTFFQAASEEDIFRHLGLEYLPPEQRNA
Question: Which “Fold increase Hs tPolM-Lp1 vs. Hs PolM-Lp1” value ([1]; Blocking group 1) does the source give for B1 here?
Answer: 2.2 Fold

Question: And the “Fold increase Hs tPolM-Lp1 vs. Hs PolM-Lp1” value ([1]; Blocking group 2)?
Answer: 2.1 Fold

Question: And the “Fold increase Hs tPolM-Lp1 vs. Hs PolM-Lp1” value ([1]; Blocking group 3)?
Answer: 2.0 Fold

Question: And the “Fold increase Hs tPolM-Lp1 vs. Hs PolM-Lp1” value ([1]; Blocking group 5)?
Answer: 1.3 Fold

Question: And the “Fold increase Hs tPolM-Lp1 vs. Hs PolM-Lp1” value ([1]; Blocking group 6 (artificial base-5SICS))?
Answer: 3.0 Fold

Question: What about the “Fold increase Hs tPolM-Lp1 vs. Hs PolM-Lp1” value ([1]; Blocking group 6 (standard base)) of the same molecule?
Answer: 2.0 Fold

Question: And the “rates of incorporation of 3′-O-carbamate or ester blocked nucleotides as compared to wild type (WT) Hs PolM” value [1]?
Answer: significantly increased

Question: What about the “increase in incorporation relative to Bt TdT” value [2] of the same molecule?
Answer: 2.7 fold

B2: Hs PolM-Lp1: Homo sapiens PolM, Loop 1 domain swap (protein)
chain: MLPKRRRARVGSPSGDAASSTPPSTRFPGVAIYLVEPRMGRSRRAFLTGLARSKGFRVLDACSSEATHVVMEETSAEEAVSWQERRMAAAPPGCTPPALLDISWLTESLGAGQPVPVECRHRLEVAGPRKGPLSPAWMPAYACQRPTPLTHHNTGLSEALEILAEAAGFEGSEGRLLTFCRAASVLKALPSPVTTLSQLQGLPHFGEHSSRVVQELLEHGVCEEVERVRRSERYQTMKLFTQIFGVGVKTADRWYREGLRTLDDLREQPQKLTQQQKAGLQHHQDLSTPVLRSDVDALQQVVEEAVGQALPGATVTLTGGFRRGKLQGHDVDFLITHPKEGQEAGLLPRVMCRLQDQGLILYHQHQESTFEKLRLPSRKVDALDHFERSFCIFRLPQPPGAAVGGSTRPCPSWKAVRVDLVVAPVSQFPFALLGWTGSKLFQRELRRFSRKEKGLWLNSHGLFDPEQKTFFQAASEEDIFRHLGLEYLPPEQRNA
Question: B2 was tested. Which “incorporation of 3′-O-carbamate or ester blocked nucleotides” value [3] did it give?
Answer: successfully incorporated

Question: And the “rates of incorporation of 3′-O-carbamate or ester blocked nucleotides as compared to wild type (WT) Hs PolM” value [1]?
Answer: significantly increased
